Experimental data taken from paper PMC11260447, “OptoLacI: optogenetically engineered lactose operon repressor LacI responsive to light instead of IPTG” (Nucleic Acids Research, 2024).

Biological target: the molecule itself
Test: SEC; purified protein incubated 1 hour in the dark, then Superdex 200 Increase 10/300 GL under dark condition; 20 mM Hepes pH 7.5, 200 mM NaCl

B1: OptoLacI^L (LacI^(W220F, 311-LOV2)) (other, E. coli | Avena sativa, UniProt P03023 1-311, looked up)
chain: MKPVTLYDVAEYAGVSYQTVSRVVNQASHVSAKTREKVEAAMAELNYIPNRVAQQLAGKQSLLIGVATSSLALHAPSQIVAAIKSRADQLGASVVVSMVERSGVEACKAAVHNLLAQRVSGLIINYPLDDQDAIAVEAACTNVPALFLDVSDQTPINSIIFSHEDGTRLGVEHLVALGHQQIALLAGPLSSVSARLRLAGWHKYLTRNQIQPIAEREGDFSAMSGFQQTMQMLNEGIVPTAMLVANDQMALGAMRAITESGLRVGADISVVGYDDTEDSSCYIPPLTTIKQDFRLLGQTSVDRLLQLSQGQLERIEKNFVITDPRLPDNPIIFASDSFLQLTEYSREEILGRNCRFLQGPETDRATVRKIRDAIDNQTEVTVQLINYTKSGKKFWNLFHLQPMRDQKGDVQYFIGVQLDGTEHVRDAAEREGVMLIKKTAENIDEAAAVKGNQLLPVSLVKRKTTLAPNTQTASPRALADSLMQLARQVSRLESGQ
notes: LOV2 domain of Avena sativa phototropin 1 (AsLOV2), residues 408-543; source: E. coli BL21 (DE3), plasmid pML364, purified (Ni-NTA twice, size exclusion chromatography)
- binding result: binds
